Data as given in patent publication US20200247856A1 (SHIRE HUMAN GENETIC THERAPIES, published 2020).

T1: Myostatin (R&D Systems, Catalogue number 788-G8-010/CF) (UniProt O14793 267-375)
T1 sequence (looked up): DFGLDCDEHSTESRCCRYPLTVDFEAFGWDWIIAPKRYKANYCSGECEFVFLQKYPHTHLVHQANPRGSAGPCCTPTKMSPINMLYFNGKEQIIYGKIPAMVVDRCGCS

T2: Activin A (R&D Systems, Catalog number 338-AC-050 CF) (UniProt P08476 311-426)
T2 sequence (looked up): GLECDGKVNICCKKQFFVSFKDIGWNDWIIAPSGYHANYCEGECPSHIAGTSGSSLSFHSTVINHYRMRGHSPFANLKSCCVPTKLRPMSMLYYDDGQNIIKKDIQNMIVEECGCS


How the values were obtained:
[1] = target: T1, Myostatin (R&D Systems, Catalogue …); assay: cell-based or functional assay
[2] = target: T2, Activin A (R&D Systems, Catalog number …); assay: cell-based or functional assay

Binder	Myostatin IC50 (nM), luciferase gene reporter assay (Smad3, A204 cells) [1]	Activin A IC50 (nM), luciferase gene reporter assay (Smad3, A204 cells) [2]
FS315K(76,81,82)E-mFc (Fc fusion, not shown: a dimerising Fc or GST) GNCWLRQAKNGRCQVLYKTELSKEECCSTGRLSTSWTEEDVNDNTLFKWMIFNGGAPNCIPCKETCENVDCGPGKECRMNEENKPRCVCAPDCSNITWKGPVCGLDGKTYRNECALLKARCKEQPELEVQYQGRCKKTCRDVFCPGSSTCVVDQTNNAYCVTCNRICPEPASSEQYLCGNDGVTYSSACHLRKATCLLGRSIGLAYEGKCIKAKSCEDIQCTGGKKCLWDFKVGRGRCSLCDELCPDSKSDEPVCASDNATYASECAMKEAACSSGVLLEVKHSGSCNSISEDTEEEEEDEDQDYSFPISSILEW	0.7 nM	0.8 nM
ActRIIB-Fc protein (R&D Systems, Catalogue number 339-RBB-100) (Fc fusion, UniProt Q13705 19-134, looked up, not shown: a dimerising Fc or GST) SGRGEAETRECIYYNANWELERTNQSGLERCEGEQDKRLHCYASWRNSSGTIELVKKGCWLDDFNCYDRQECVATEENPQVYFCCCEGNFCNERFTHLPEAGGPEVTYEPPPTAPT	0.5 nM	0.5 nM
